Test results as given in article PMC4650713, “Crystal structure of Bax bound to the BH3 peptide of Bim identifies important contacts for interaction” (Cell Death & Disease, 2015).

B1: BaxΔC26 (domain or fragment)
chain: MDGSGEQPRGGGPTSSEQIMKTGALLLQGFIQDRAGRMGGEAPELALDPVPQDASTKKLSESLKRIGDELDSNMELQRMIAAVDTDSPREVFFRVAADMFSDGNFNWGRVVALFYFASKLVLKALSTKVPELIRTIMGWTLDFLRERLLGWIQDQGGWDGLLSYFGSS
notes: Bax truncated at the C terminus by 26 amino acids, with C62S and C126S; C terminus G166; two extra residues (Ser–Ser) at the C terminus after intein digestion, a cloning artefact; In the crystals it stands as a domain-swapped core/latch dimer, each chain with one BH3 peptide; also called Bax C62S C126S truncated at the C terminus by 26 amino acids
B2: BaxΔC28 (domain or fragment)
chain: MDGSGEQPRGGGPTSSEQIMKTGALLLQGFIQDRAGRMGGEAPELALDPVPQDASTKKLSESLKRIGDELDSNMELQRMIAAVDTDSPREVFFRVAADMFSDGNFNWGRVVALFYFASKLVLKALSTKVPELIRTIMGWTLDFLRERLLGWIQDQGGWDGLLSYSS
notes: Bax truncated at the C terminus by 28 amino acids, with C62S and C126S; lacks F165; two extra residues (Ser–Ser) at the C terminus after intein digestion, a cloning artefact; In the crystal it stands as a core/latch dimer; also called Bax C62S C126S truncated at the C terminus by 28 amino acids
B3: BaxI66AΔC21 (domain or fragment, UniProt Q07812 1-171, looked up)
chain: MDGSGEQPRGGGPTSSEQIMKTGALLLQGFIQDRAGRMGGEAPELALDPVPQDASTKKLSESLKRAGDELDSNMELQRMIAAVDTDSPREVFFRVAADMFSDGNFNWGRVVALFYFASKLVLKALSTKVPELIRTIMGWTLDFLRERLLGWIQDQGGWDGLLSYFGTPTWQ
notes: BaxΔC21 (Bax truncated at the C terminus by 21 amino acids, with C62S and C126S) with I66A; Called a BaxΔC21 mutant; In the crystal it stands as a core/latch dimer; also called BaxΔC21 mutant I66A

What was measured:
[1] = molecular target: the molecule itself; test: crystal structure; BimBH3:BaxΔC26; core/latch dimer induced by peptide, purified by SEC, threefold molar excess of peptide added; 0.1 M sodium bicine pH 9.0, 20% PEG6000, 277 K
[2] = molecular target: the molecule itself; test: crystal structure; BidBH3, BimBH3mini or BidBH3mini with core/latch dimers of BaxI66AΔC21, BaxΔC26 or BaxΔC28; threefold molar excess of peptide; about 1 M tri-sodium citrate, 0.1 M sodium cacodylate pH 6.5, 277 K

Row | Protein | stoichiometry N [1] | stoichiometry N [2]
1 | B1 | 2 | 
2 | B2 |  | 2
3 | B3 |  | 2
